Biological target: T1, RbAB and RbABC (Homo sapiens, UniProt P06400)
T1 construct: non-tagged RbAB (residues 372-787); His6-RbABC (RESIDUES 380-929); made in house; host or cells: E. coli
T1 sequence (P06400 372-787 limits assumed): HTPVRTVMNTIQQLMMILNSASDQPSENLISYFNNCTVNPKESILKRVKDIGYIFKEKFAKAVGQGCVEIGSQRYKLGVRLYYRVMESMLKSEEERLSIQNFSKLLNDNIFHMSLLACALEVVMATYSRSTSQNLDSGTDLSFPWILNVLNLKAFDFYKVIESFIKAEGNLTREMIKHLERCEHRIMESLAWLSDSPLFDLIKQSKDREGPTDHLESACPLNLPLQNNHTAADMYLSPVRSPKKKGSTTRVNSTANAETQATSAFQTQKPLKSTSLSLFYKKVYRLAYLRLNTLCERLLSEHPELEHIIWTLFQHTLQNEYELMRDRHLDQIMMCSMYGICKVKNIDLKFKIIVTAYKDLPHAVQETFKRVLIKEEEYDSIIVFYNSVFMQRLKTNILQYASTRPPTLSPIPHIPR
T1 sequence (P06400 380-928 limits assumed): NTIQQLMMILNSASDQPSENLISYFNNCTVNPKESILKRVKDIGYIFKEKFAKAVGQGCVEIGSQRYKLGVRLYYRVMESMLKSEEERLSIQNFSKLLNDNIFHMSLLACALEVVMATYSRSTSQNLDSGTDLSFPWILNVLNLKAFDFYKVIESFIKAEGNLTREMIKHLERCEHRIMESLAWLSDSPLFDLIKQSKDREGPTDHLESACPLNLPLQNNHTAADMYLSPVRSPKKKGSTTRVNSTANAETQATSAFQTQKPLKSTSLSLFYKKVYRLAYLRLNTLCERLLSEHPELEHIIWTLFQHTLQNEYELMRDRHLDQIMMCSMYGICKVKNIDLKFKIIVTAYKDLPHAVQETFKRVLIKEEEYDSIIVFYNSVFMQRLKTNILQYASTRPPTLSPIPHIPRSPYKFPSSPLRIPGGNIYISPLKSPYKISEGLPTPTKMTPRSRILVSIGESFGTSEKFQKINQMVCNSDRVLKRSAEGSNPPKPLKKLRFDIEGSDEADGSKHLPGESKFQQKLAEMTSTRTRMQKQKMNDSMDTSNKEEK
Assay: Competition experiment (Ni column, SDS-PAGE): partition of E2F(243-437) between RbAB and RbABC
Assay type: binding
Details: His6-RbABC against non-tagged RbAB, proteins mixed at 40 μM
Procedure: Binding of the various E2F constructs to RbAB and RbABC was measured by isothermal titration calorimetry using a MicroCal Omega VP-ITC machine (MicroCal Inc., Northampton, USA). The E2F constructs at a concentration between 100-150 μM were titrated into 12-15 μM Rb at a temperature of 22° C. Proteins were dialysed against 50 mM Tris pH 7.6, 100 mM NaCl and 1 mM TCEP. After subtraction of the dilution heats, calorimetric data was analysed using the evaluation software MicroCal Origin v5.0 (MicroCal Software Inc.). For all of the titrations, the stoichiometry of ligand binding to Rb was very close to 1.0. For E2F(243-437) binding to Rb, the binding affinity and the heat change associated with binding were such that we could only establish that binding was tighter than 10 nM.
The proteins used in these experiments were His6-RbABC (RESIDUES 380-929); MW 66.07 kDa, non-tagged RbAB (residues 372-787); MW 48.67 KDa, are His6-RbAB (residues 376-792); MW 49.86 KDa, E2F(243-437); MW 21.45 KDa HPV E7 (residues 17-98); MW 9.38 KDa and E2F(409-426); MW 2.12 KDa. Protein concentrations were carefully determined by u.v. spectroscopy and confirmed by ITC titrations. The small acidic E2F proteins stain much weaker than Rb with Coomassie on SDS-PAGE. For all gel lanes contained a final RbAB concentration of ca. 7 μM. […]

B1: E2F(243-437): Recombinant human E2F1(243-437) expressed in E. coli (protein, UniProt Q01094 243-437, looked up, fragment)
chain: LAYVTCQDLRSIADPAEQMVMVIKAPPETQLQAVDSSENFQISLKSKQGPIDVFLCPEETVGGISPGKTPSQEVTSEEENRATDSATIVSPPPSSPPSSLTTDPSQSLLSLEQEPLLSRMGSLRAPVDEDRLSPLVAADSLLEHVREDFSGLLPEEFISLSPPHEALDYHFGLEEGEGIRDLFDCDFGDLTPLDF
partitioning between the two pRb species: approximately equal partitioning

From patent US20060234906A1, “Structure of a complex of retinoblastoma protein bound to e2f, and uses thereof” (priority 2002, published 2006)
